Here are results for eight molecules from patent US5688511, “Cellular protein TDP-43 and regulation of HIV-1 gene expression” (Board of Regents, The University of Texas System).

The target in one data set is GST-TDP-43 (7-333) (Homo sapiens, UniProt Q13148 SEQ:7-333). Briefly: EMSA; glycine-rich domain truncation; bound like wild type. As to conditions: tags: N-terminal GST; label: 32P. For orientation: Mobility shift assays separate free from complexed probe on a gel.
A further data set concerns the target GST-TDP-43 (7-166) (Homo sapiens, UniProt Q13148 SEQ:7-166). Kind of data set: EMSA; only first RNP-1 retained; bound, affinity higher when both RNP1 and RNP2 present. Conditions: tags: N-terminal GST; label: 32P.
Data set [1] has as its target T1, TDP-43 full length (thrombin-cleaved) (Homo sapiens, UniProt Q13148 SEQ:1-414). Briefly: UV crosslinking, 43 and 86 kDa species, 160 or 800 ng protein. Conditions: tags: GST removed by thrombin; label: 32P.
Data set [2] concerns the target T2, GST-TDP-43 (7-414) (Homo sapiens, UniProt Q13148 SEQ:7-414). Kind of data set: EMSA; 50 mM KCl, 5 mM MgCl2, room temperature; competed by 5-50x unlabeled WT. Conditions: tags: N-terminal GST; label: 32P.
The target in a further data set is GST-TDP-43 (7-198) (Homo sapiens, UniProt Q13148 SEQ:7-198). Kind of data set: EMSA; part of RNP domain deleted; still bound. Conditions: tags: N-terminal GST; label: 32P.
The next data set concerns the target GST-TDP-43 (7-240) (Homo sapiens, UniProt Q13148 SEQ:7-240). Kind of data set: EMSA; glycine-rich domain deleted; bound like wild type. Conditions: tags: N-terminal GST; label: 32P.
The target in data set [3] is T2, GST-TDP-43 (7-414). Kind of data set: competition; up to 50x excess did not significantly compete. As to conditions: tags: N-terminal GST.
The target in data set [4] is T1, TDP-43 full length (thrombin-cleaved). Briefly: UV crosslinking. As to conditions: tags: GST removed by thrombin.
In data set [5] the target is T2, GST-TDP-43 (7-414). Briefly: competition; up to 50x excess did not compete. Conditions: tags: N-terminal GST.
Data set [6] has as its target T1, TDP-43 full length (thrombin-cleaved). Kind of data set: competition; 50x excess did not compete UV crosslinking. As to conditions: tags: GST removed by thrombin.
The target of data set [7] is T2, GST-TDP-43 (7-414). Kind of data set: competition; up to 50x excess did not significantly compete; listed as -46/-13 in Example 8. As to conditions: tags: N-terminal GST.

T1 sequence (Q13148 whole entry): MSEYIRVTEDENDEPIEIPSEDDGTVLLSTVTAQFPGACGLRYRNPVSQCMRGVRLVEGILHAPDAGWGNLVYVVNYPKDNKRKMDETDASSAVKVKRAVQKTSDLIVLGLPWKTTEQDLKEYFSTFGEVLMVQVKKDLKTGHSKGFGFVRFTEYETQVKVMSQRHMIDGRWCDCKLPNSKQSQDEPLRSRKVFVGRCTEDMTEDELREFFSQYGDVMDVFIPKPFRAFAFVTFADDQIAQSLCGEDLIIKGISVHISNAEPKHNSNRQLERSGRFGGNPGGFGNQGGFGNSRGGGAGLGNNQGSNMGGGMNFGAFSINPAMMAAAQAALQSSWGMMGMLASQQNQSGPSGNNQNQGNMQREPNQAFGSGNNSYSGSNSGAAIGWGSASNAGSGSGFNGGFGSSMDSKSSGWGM
T2 sequence (Q13148 7-414): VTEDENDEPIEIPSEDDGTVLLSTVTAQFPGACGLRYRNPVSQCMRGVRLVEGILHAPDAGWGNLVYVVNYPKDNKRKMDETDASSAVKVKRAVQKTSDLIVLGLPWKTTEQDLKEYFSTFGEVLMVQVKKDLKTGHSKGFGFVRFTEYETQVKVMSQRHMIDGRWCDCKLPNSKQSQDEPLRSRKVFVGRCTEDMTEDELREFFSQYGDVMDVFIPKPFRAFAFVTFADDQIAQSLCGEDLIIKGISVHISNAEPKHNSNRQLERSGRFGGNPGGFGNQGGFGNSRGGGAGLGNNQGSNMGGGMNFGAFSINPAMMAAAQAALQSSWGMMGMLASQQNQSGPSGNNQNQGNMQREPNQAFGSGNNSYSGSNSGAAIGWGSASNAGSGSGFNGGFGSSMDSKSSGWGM
Chain of GST-TDP-43 (7-166) (Q13148 7-166): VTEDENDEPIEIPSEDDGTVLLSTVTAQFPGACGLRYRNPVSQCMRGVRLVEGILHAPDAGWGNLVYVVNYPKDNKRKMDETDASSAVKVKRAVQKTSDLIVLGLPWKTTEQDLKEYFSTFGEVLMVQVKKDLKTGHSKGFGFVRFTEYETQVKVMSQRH
Chain of GST-TDP-43 (7-333) (Q13148 7-333): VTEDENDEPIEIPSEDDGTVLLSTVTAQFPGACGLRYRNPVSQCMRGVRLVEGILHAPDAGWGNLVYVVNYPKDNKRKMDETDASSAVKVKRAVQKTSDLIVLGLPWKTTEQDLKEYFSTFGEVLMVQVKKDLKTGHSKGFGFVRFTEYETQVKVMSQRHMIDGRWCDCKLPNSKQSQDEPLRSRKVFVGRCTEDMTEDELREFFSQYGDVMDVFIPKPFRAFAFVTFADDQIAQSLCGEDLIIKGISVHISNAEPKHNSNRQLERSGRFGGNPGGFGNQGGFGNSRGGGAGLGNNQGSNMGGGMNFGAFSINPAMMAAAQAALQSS
Chain of GST-TDP-43 (7-198) (Q13148 7-198): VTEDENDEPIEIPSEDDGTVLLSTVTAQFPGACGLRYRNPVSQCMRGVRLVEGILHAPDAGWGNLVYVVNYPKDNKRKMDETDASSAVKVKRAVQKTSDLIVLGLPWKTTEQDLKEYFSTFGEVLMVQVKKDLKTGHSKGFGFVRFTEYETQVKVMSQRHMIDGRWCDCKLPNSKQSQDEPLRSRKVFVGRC
Chain of GST-TDP-43 (7-240) (Q13148 7-240): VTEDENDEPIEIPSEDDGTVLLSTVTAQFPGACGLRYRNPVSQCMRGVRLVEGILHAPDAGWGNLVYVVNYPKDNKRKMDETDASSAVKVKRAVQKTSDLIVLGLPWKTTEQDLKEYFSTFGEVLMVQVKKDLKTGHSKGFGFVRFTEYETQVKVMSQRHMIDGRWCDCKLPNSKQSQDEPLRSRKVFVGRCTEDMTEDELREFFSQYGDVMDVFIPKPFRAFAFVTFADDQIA

B1: HIV-1 LTR -18/+28 (TAR DNA) WT (dsDNA)
DNA 1: CTGCTTTTTGCCTGTACTGGGTCTCTCTGGTTAGACCAGATCTGAG
DNA 2: CTCAGATCTGGTCTAACCAGAGAGACCCAGTACAGGCAAAAAGCAG
With B1, the binding result (with GST-TDP-43 (7-333); with GST-TDP-43 (7-166); in data set [1]; with GST-TDP-43 (7-414) [2]; with GST-TDP-43 (7-198); with GST-TDP-43 (7-240)) was “binds” each time.

B2: HIV-1 LTR -45/+1 (dsDNA)
DNA 1: GCGTGCCTCAGATGCTGCATATAAGCAGCAGCTGCTTTTTGCCTGTACT
DNA 2: AGTACAGGCAAAAAGCAGCTGCTGCTTATATGCAGCATCTGAGGCACGC
For the molecule B2, the binding result in the data set with GST-TDP-43 (7-414) [3] is “no binding”.

B3: HIV-1 LTR -18/+28 delta1 (dsDNA)
DNA 1: CTGACGTACGTACGTACTGGGTCTCTCTGGTTAGACCAGATCT
DNA 2: AGATCTGGTCTAACCAGAGAGACCCAGTACGTACGTACGTCAG
B3: the binding result (in data set [4]; in the data set with GST-TDP-43 (7-414) [5]) was “no binding” in each case.

B4: HIV-1 LTR -18/+28 delta1+delta2 (dsDNA)
DNA 1: CTGACGTACGTACGTACGTACATGCGTACGTTACGGACCATCT
DNA 2: AGATGGTCCGTAACGTACGCATGTACGTACGTACGTACGTCAG
For the molecule B4, the binding result (with GST-TDP-43 (7-414) [5]; in data set [6]) was “no binding” each time.

B5: HIV-1 LTR +10/+50 (dsDNA)
DNA 1: GGTTAGACCAGATCTGAGCCTGGGAGCTCTCTGGCTAACTAG
DNA 2: CTAGTTAGCCAGAGAGCTCCCAGGCTCAGATCTGGTCTAACC
As to B5, the binding result in the data set with GST-TDP-43 (7-414) [3] is listed as “no binding”.

B6: HIV-1 LTR -18/+28 delta2 (dsDNA)
DNA 1: CTGCTTTTTGCCTGTACGTACATGCGTACGTTAGACCAGATCT
DNA 2: AGATCTGGTCTAACGTACGCATGTACGTACAGGCAAAAAGCAG
Take B6: the binding result (in data set [4]; in the data set with GST-TDP-43 (7-414) [5]) was “no binding” each time.

B7: AdMLP TATA (dsDNA)
DNA 1: AAGGGGGGCTATAAAAGGGGGTGGGGG
DNA 2: CCCCCACCCCCTTTTATAGCCCCCCTT
B7: the binding result with GST-TDP-43 (7-414) [5] was “no binding”.

B8: HIV-1 LTR -45/-13 (dsDNA)
DNA 1: GCGTGCCTCAGATGCTGCATATAAGCAGCTGCTTT
DNA 2: AAAGCAGCTGCTTATATGCAGCATCTGAGGCACGC
For B8, the binding result with GST-TDP-43 (7-414) [7] was “no binding”.
